B1: EEHEE_rd3_1049 (parent)
chain: TTVKLGDIKVTFDNPEKAKKYAQKLAKIYQLTVHVHGDTIHVK
B2: 5KPH (parent)
chain: EEKRQVKQVAKEKLLEQSPNSKVQVRRVQKQGNTIRVELELRTNGKKENYTVEVERQGNTWTVKRITRT

Variants of: B1
Experiment: folding stability dG (cDNA display proteolysis); higher = more stable
Conditions: PBS, room temperature

Folding stability dG [kcal/mol]: each site, then its substitutions
K4: Y 2.5, N 1.34, I 3.17, D 1.09, E 1.6, L 2.47, T 1.85, H 2.07, W 2.76, R 2.18, V 2.91, G 0.845, A 1.71, Q 2.35, S 1.61, P 0.652, C 3.22, M 2.47, F 2.4
G6: T 0.948, M 1.55, C 3.09, R 1.76, V 1.2, I 1.49, P 0.61, W 2.23, Q 1.12, D 0.87, F 2.02, A 1.24, E 0.771, S 1.05, H 1.75, N 1.45, K 1.41, L 1.61, Y 1.89
L5: P 0.495, Y 2.12, F 2.71, W 2.83, V 2.08, E 0.422, D 0.531, Q 0.604, C 3.38, T 0.739, N 0.735, H 1.59, R 0.884, G 0.536, A 0.939, M 2.24, I 2.79, K 0.76, S 0.683
D7: M 2.63, V 2.52, C 3.56, Y 2.94, F 2.83, P 2.31, W 3.24, Q 2.5, K 3.17, G 2.39, E 1.97, S 2.73, N 2.85, L 2.69, H 2.79, A 2.6, R 3.21, I 2.64, T 2.56
T2: Y 1.72, D 1.01, P 0.739, F 1.67, H 1.82, R 1.03, N 1.17, M 1.65, A 1.22, G 0.901, L 1.51, K 1.26, C 2.33, Q 1.28, V 2.12, E 1.06, W 1.6, I 2.23, S 1.4
K9: S 2.43, R 2.23, G 1.25, T 2.42, E 2.27, C 3.33, I 2.46, L 2.39, D 1.28, Y 2.42, A 2.06, F 2.24, V 2.38, H 2.06, W 2.47, Q 2.06, N 1.76, M 2.34, P 0.591
I8: Y 2.87, S 1.37, E 0.747, R 1.94, T 1.54, V 1.88, D 0.538, K 1.83, L 2.19, A 1.18, Q 1.28, F 2.95, M 2.1, C 3.42, W 3.22, H 2.62, G 0.616, P 0.237, N 1.21
V10: M 2, T 1.12, L 2.08, R 1.79, D 0.272, E 0.411, H 1.06, I 2.48, F 2.35, W 3.21, S 0.658, C 2.92, Q 0.914, P 0.26, K 1.72, Y 1.95, A 0.985, N 0.575, G 0.275
T1: K 1.19, L 1.76, D 0.651, S 1.23, N 1.1, Q 1.06, Y 2.52, W 2.77, M 2.14, E 0.641, H 1.56, A 1.43, I 2.27, V 2.14, P 1.02, C 3.02, R 1.28, F 2.42, G 0.959
D13: M 2.12, L 2.08, N 1.98, W 2.01, G 1.69, C 2.6, V 1.89, E 1.9, Y 1.85, S 2.25, K 2.2, T 2.16, H 1.86, F 1.93, Q 2.1, A 2.11, I 1.96, P 1.58, R 2.13
F12: Q 0.131, Y 0.563, P 0.089, V 0.419, I 0.634, G -0.438, W 0.742, M 0.628, C 1.74, N -0.055, S -0.062, L 0.617, T 0.094, H 0.172, K 0.115, E 0.041, R 0.188, A 0.107, D -0.148
V3: N 0.593, Y 0.622, F 0.742, I 1.34, K 0.686, M 0.732, A 0.626, H 0.671, T 0.665, R 0.673, G 0.742, S 0.71, D 0.577, Q 0.609, W 0.663, P 0.746, L 1.09, C 2.3, E 0.57
N14: P 0.431, K 1.25, C 2.02, D 2.38, R 1.26, E 1.4, F 1.2, V 1.12, L 1.32, Q 1.25, A 1.18, Y 1.05, G 1.05, M 1.2, T 1.98, H 1.61, S 2.12, I 1.22, W 1.34
P15: E 1.72, D 1.16, A 2.09
T11: G 0.999, R 2.24, K 2.06, H 2.31, P 1.05, E 1.58, Y 2.69, C 2.98, W 2.74, S 1.77, A 1.48, L 2.21, M 2.15, Q 1.88, D 1.08, V 2.42, F 2.51, N 1.65, I 2.33

Variants of: B2
Experiment: as above
Conditions: PBS, room temperature

Folding stability dG [kcal/mol]: each site, then its substitutions
Q24: H 4.28
Q5: L 3.9
E55: I 4.11, H 3.65, R 3.1, P -0.38, L 3.54
K13: G 3.55
R56: G 3.19, I 3.29
K7: F 4.07
L14: S 2.17, V 3.65
R65: H 3.58
R4: G 3.38, E 4.22, W 3.79
V9: Q 3.26, Y 3.38, K 3.39
W61: R 1.41, S 2, G 1.39
N49: C 3.73
L39: K -0.798
K22: Y 4.05
I66: R 1.28, A 2.2
T69: L 3.98
Q8: G 3.2, D 3.67
E53: F 4.03, A 2.99, D 3.76
Y50: V 3.56
R27: G 3.64, D 3.1
P19: C 3.04, W 2.15
G58: Q 3.5
E12: P 1.8
K11: R 3.94
T51: D 3.01
I35: R 2.6
N33: E 3.68, P 3.55, V 3.4
T43: M 3.68, H 3.98
N20: P 2.3
T62: G 3.48
A10: F 2.24
G32: S 2.97, W 3.21, V 2.74
V54: W 2.75, I 3.92, C 3.36
N59: S 3.62
Q29: I 4.24
T60: G 4.12, N 4.07
Q31: Y 4.34, I 4.42
V23: Q 1.79

— the MegaScale stability set (Tsuboyama et al. 2023)
